Measured values reported in the supplement of paper PMC12338614.
± gives the uncertainty stated by the source.

B1: library; numbered along this chain (parent)
chain: MEVVDPQQLGMFTEGELMSVGMDTFIHRIDSTEVIYQPRRKRAKLIGKYLMGDLLGEGSYGKVKEVLDSETLCRRAVKILKKKKLRRIPNGEANVKKEIQLLRRLRHKNVIQLVDVLYNEEKQKMYMVMEYCVCGMQEMLDSVPEKRFPVCQAHGYFCQLIDGLEYLHSQGIVHKDIKPGNLLLTTGGTLKISDLGVAEALHPFAADDTCRTSQGSPAFQPPEIANGLDTFSGFKVDIWSAGVTLYNITTGLYPFEGDNIYKLFENIGKGSYAIPGDCGPPLSDLLKGMLEYEPAKRFSIRQIRQHSWFRKKHPPAEAPVPIPPSPDTKDRWRSMTVVPYLEDLHGADEDEDLFDIEDDIIYTQDFTVPGQVPEEEASHNGQRRGLPKAVCMNGTEAAQLSTKSRAEGRAPNPARKACSASSKIRRLSACKQQ

Variants of: B1
Assay: STK11 functional score (HeLa growth suppression), rescaled enrichment; synonymous median = 1, nonsense median = 0 (normalised score)
Settings: with HeLa; variant type: missense
Procedure, shortened: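 The functional score takes the post/pre-selection log ratio, corrects it to wild type, rescales it to synonymous and nonsense medians, and merges it over codons and replicate transfections, with error from bootstrapping. Counts came from tiled gDNA amplicons sequenced on NextSeq (~2 million reads per tile). The libraries were POPCode codon-randomised, codon-optimised STK11 integrated by Bxb1 at an AAVS1 landing pad in HeLa, three regions with three transfections each.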

Point of comparison: D355R, STK11 functional score 1.43 ± 0.22. Against it:
- P275K — within error, 1.45 ± 0.32
- P275V — lower, 0.683 ± 0.34
- T209G — within error, 1.36 ± 0.13
- H107R — lower, 0.205 ± 0.11
- P217F — within error, 1.45 ± 0.12
- G215A — within error, 1.15 ± 0.2
- G381S — within error, 1.36 ± 0.28
- G381Y — within error, 1.37 ± 0.36
- S428D — within error, 1.21 ± 0.45
- S428K — lower, 0.386 ± 0.55
- A205E — within error, 1.64 ± 0.21
- A205V — within error, 1.09 ± 0.32
- A205P — lower, 0.302 ± 0.19
- P38L — lower, 0.812 ± 0.14
- K235Q — within error, 1.58 ± 0.35
- I322D — within error, 1.18 ± 0.52
- I322C — within error, 1.17 ± 0.32
- R147C — within error, 1.26 ± 0.076
- R147M — within error, 1.06 ± 0.58
- E374T — within error, 1.52 ± 0.31
- E374H — within error, 1.06 ± 0.53
- P221R — lower, 0.116 ± 0.18
- P89R — lower, 0.754 ± 0.1
- P89N — within error, 1.67 ± 0.19
- E165S — within error, 1.39 ± 0.38
- E165Q — within error, 0.995 ± 0.58
- V150R — within error, 1.17 ± 0.25
- Q399M — lower, 0.653 ± 0.13
- S299A — within error, 1.42 ± 0.15
- D141T — lower, 0.00893 ± 0.31
- R310L — within error, 1.37 ± 0.27
- I356W — within error, 1.66 ± 0.25
- F148G — lower, -0.0254 ± 0.081
- A397C — lower, 1.04 ± 0.15
- A397T — within error, 1.51 ± 0.23
- D365E — within error, 0.893 ± 0.49
- D258W — within error, 1.5 ± 0.51
- V77R — lower, 0.469 ± 0.17
- V77D — lower, 0.0184 ± 0.081
- K97N — within error, 1.21 ± 0.42
- C151T — lower, 0.991 ± 0.13
- R304S — within error, 0.843 ± 0.6
- E291A — within error, 1.47 ± 0.44
- E291W — within error, 1.35 ± 0.12
- E291H — within error, 1.17 ± 0.2
- T395N — within error, 1.4 ± 0.21
- A417M — within error, 1.47 ± 0.12
- A417F — within error, 1.15 ± 0.13
- N247S — within error, 1.3 ± 0.2
- I46V — lower, 0.613 ± 0.39
- T328V — within error, 1.36 ± 0.14
- P321G — lower, 1.01 ± 0.14
- I267A — within error, 1 ± 0.34
- E121G — within error, 1.18 ± 0.26
- H313R — lower, -0.189 ± 0.069
- H313V — lower, 0.495 ± 0.12
- T24H — within error, 1.7 ± 0.17
- L400N — within error, 1.63 ± 0.31
- L400Q — within error, 1.27 ± 0.42
- K191D — lower, -0.393 ± 0.099
- R383N — within error, 1.5 ± 0.16
- R383H — within error, 1.57 ± 0.31
- G227F — within error, 1.14 ± 0.12
- G227A — lower, 0.273 ± 0.11
- S31T — within error, 1.5 ± 0.11
- A200V — lower, 0.901 ± 0.23
- A200P — within error, 1.35 ± 0.56
- L72Q — within error, 1.26 ± 0.14
- L72N — lower, 0.264 ± 0.095
- E349D — within error, 1.35 ± 0.44
- K388V — within error, 1.3 ± 0.2
- K388L — lower, 0.826 ± 0.34
- L105I — within error, 1.57 ± 0.36
- D284P — lower, 0.0198 ± 0.1
- D284G — lower, 0.99 ± 0.21
- H27L — within error, 1.35 ± 0.19
- H27R — within error, 1.03 ± 0.18
- V116R — lower, 0.888 ± 0.12
- G251C — lower, -0.00733 ± 0.1
- G251P — lower, 0.0226 ± 0.16
- P413H — within error, 1.61 ± 0.12
- P413K — within error, 1.55 ± 0.14
- G15V — within error, 1.1 ± 0.24
- D343R — within error, 1.11 ± 0.2
- Y131A — lower, 0.676 ± 0.19
- A206G — within error, 1.14 ± 0.26
- A206P — within error, 1.24 ± 0.15
- T71M — lower, 0.604 ± 0.21
- E65W — within error, 1.36 ± 0.12
- E65Q — within error, 1.18 ± 0.52
- L282F — within error, 1.21 ± 0.33
- R425T — within error, 1.52 ± 0.27
- R425F — within error, 1.11 ± 0.54
- R425V — lower, 0.938 ± 0.18
- A410G — within error, 1.23 ± 0.24
- I248Q — within error, 1.25 ± 0.49
- D355A — lower, 0.938 ± 0.15
- I172A — within error, 1.02 ± 0.78
- R103A — within error, 1.42 ± 0.15
- P339A — within error, 1 ± 0.56
- L195E — within error, 1.59 ± 0.18
- H154W — lower, 0.87 ± 0.091
- G279P — within error, 1.17 ± 0.33
- A414Y — within error, 1.58 ± 0.12
- A414D — within error, 0.946 ± 0.29
- N380G — within error, 1.57 ± 0.31
- G242V — lower, -0.059 ± 0.094
- G242N — lower, -0.133 ± 0.22
- G242M — lower, -0.0974 ± 0.093
- M11T — within error, 1.23 ± 0.65
- M125A — within error, 1.14 ± 0.36
- M125Q — within error, 1.68 ± 0.17
- Q152V — within error, 1.19 ± 0.27
- Q112N — within error, 1.55 ± 0.18
- K311H — lower, 0.501 ± 0.66
- K311V — within error, 0.835 ± 0.47
- R74C — within error, 1.11 ± 0.25
- A347H — lower, 0.00438 ± 0.16
- G187P — within error, 1.49 ± 0.12
- L54R — lower, 0.812 ± 0.087
- K122C — within error, 1.46 ± 0.36
- K122E — within error, 0.911 ± 0.6
- L113I — lower, 0.313 ± 0.082
- S334Q — within error, 1.53 ± 0.13
- S334R — lower, 0.671 ± 0.28
- S193R — lower, -0.142 ± 0.11
- E342A — within error, 1.11 ± 0.29
- E342P — within error, 1.53 ± 0.15
- T367G — within error, 1.6 ± 0.14
- C278S — within error, 1.21 ± 0.18
- C278Q — lower, 0.612 ± 0.12
- C278K — within error, 1.57 ± 0.25
- Y36R — within error, 1.3 ± 0.59
- Y36F — lower, 0.511 ± 0.078
- P6S — within error, 1.52 ± 0.17
- P6M — lower, 0.679 ± 0.19
- P6T — lower, 0.874 ± 0.12
- S142G — within error, 1.62 ± 0.16
- Y362C — within error, 1.33 ± 0.15
- G10M — within error, 1.51 ± 0.42
- I177Y — lower, 0.215 ± 0.075
- H306C — lower, 0.975 ± 0.1
- H306Q — lower, 0.514 ± 0.21
- P254S — lower, 0.653 ± 0.17
- N94V — lower, 0.637 ± 0.13
- L85W — within error, 1.16 ± 0.086
- G58Y — lower, -0.201 ± 0.096
- G58W — lower, 0.24 ± 0.092
- H174L — lower, 0.234 ± 0.067
- N226Q — within error, 1.45 ± 0.27
- I424S — within error, 1.37 ± 0.2
- K44G — lower, 0.448 ± 0.26
- Y126A — within error, 1.21 ± 0.25
- K48L — within error, 1.3 ± 0.17
- K48A — lower, 0.852 ± 0.2
- Q123V — lower, 0.961 ± 0.2
- V338R — within error, 0.93 ± 0.4
- V338S — within error, 1.59 ± 0.26
- R106S — within error, 1.49 ± 0.16
- Y261P — within error, 1.15 ± 0.38
- Y261F — lower, 0.449 ± 0.14
- S404H — within error, 1.6 ± 0.28
- S404M — within error, 1.58 ± 0.28
- Y166K — within error, 1.56 ± 0.29
- G180M — within error, 0.93 ± 0.82
- R104V — lower, 0.88 ± 0.21
